How the values were obtained:
Gibberella zeae = format: cell-based; parameters: key: xx = no growth/strong inhibition; x = small inhibition; conditions: start concentration 100 μg/ml
[1] = Substrate specificity, reducing end assay; format: biochemical; conditions: in % activity of chitin powder; 16 h at optimum conditions, 50 mg/ml substrate
Experimental: Different chitinous substrates were tested to assess the substrate affinity of the novel chitinases relative to untreated chitin powder. […] As expected, the conversion of colloidal chitin is more efficient compared to chitin powder as it provides an overall smaller particle size and thereby larger surface area. Chitosan powder (degree of acetylation: 15%) was also degraded efficiently and high chitosanase activity was observed especially for C1, C3, C4 and C5. Merely basal activity was detected when cellulose was utilized as a substrate for all enzymes.
The preparation of colloidal chitin was similar to the method described by Murthy and Bleakley with some minor differences [Murthy et al., Microbiol., 2012. 10(2): p. 1-5.]. Chitin powder (Carl Roth) was dissolved in concentrated hydrochloric acid (HCl) (5 g in 100 mL) and stirred at 4° C. for 24 h, after which the mixture was centrifuged at 4000×g for 15 min at 4° C. The precipitate was washed to neutral pH with distilled water and stored at 4° C.
Enzyme samples were incubated at different temperature (10-60° C., 10° C. increment) and pH (4-11, increment 1) using different buffer systems (Acetate, Tris-HCl, MES, total molar concentration 100 mM), as well as NaCl content (0, 1. 2.5, 5, 10 and 20% w/v) to determine optimum reaction conditions. All experiments were carried out at 1.0 ml scale using 2 μM of the respective enzymes and a 5% (wv) suspension of chitin powder extracted from shrimp shells (˜400.000 g/mol; Carl, Roth) in 100 mM MAT buffer. For the determination of the substrate specificity, chitin powder (5% w/v), glycol chitin (10% v/v), colloidal chitin (5% w/v), chitosan [DA 15-25%, medium molecular weight, Sigma-Aldrich] (5% w/v) and microcrystalline cellulose powder (Sigma Aldrich) (5% w/v) were investigated, respectively. The effect of several potential co-factors on activity was elucidated at a concentration of 1 mM. Additionally, the effect of detergents [SDS 0.5% (w/v), Tween-20 and Triton X-100 both at 0.5% (v/v)] and chemicals (Imidazole 100 mM, EDTA 1 mM) on enzymatic activity was assessed. Samples were incubated in a thermomixer for 16 h at 900 rpm. After incubation, samples were analyzed using the enzyme assay. Thermostability was assessed after incubation of recombinant chitinases at 60° C. for different durations followed by the quantification of residual enzyme activity under standard assay conditions.

Septoria tritici = assay: Minimum inhibitory concentration (MIC) test on fungal pathogens; format: cell-based; parameters: key: xx = no growth/strong inhibition; x = small inhibition; conditions: start concentration 100 μg/ml
[2] = Reducing end assay, specific chitinase activity of expression and purification fractions; format: biochemical; conditions: chitin powder, 16 h at 30° C.
Experimental: Integrity and correctness of the constructs was confirmed by colony PCR and Sanger-sequencing. All constructs were transformed into E. coli BL21 and expressed recombinantly. Expression levels of the target enzymes were determined densitometrically after immunoblot detection for cytosolic and secreted expression. Enzymatic activity was determined for all samples using a reducing end assay. […] Furthermore, it was confirmed that these enzymes are efficiently released into the culture supernatant, rendering cell lysis unnecessary for future production cycles.
A two-step purification of the selected recombinant enzymes with PelB signal peptide form the culture supernatant was carried out with an initial ammonium sulfate precipitation step and a sequential IMAC purification of the solubilized protein precipitate. Elution fractions were pooled and an SDS-PAGE and immunoblot was prepared loading the same volume for each sample (FIG. 4). Expression levels of the five chitinases varied largely, and C1 was detected in much greater abundance relative to the others. […] The observed molecular weight of all enzymes in SDS-PAGE gel and immunoblot was not in accordance with the expected theoretical molecular weight taking into account that a 6×His tag was added C-terminally to the enzymes and in general, bands for all enzymes were detected at a higher molecular weight. For all samples, unspecific bands could detected at ˜25 kDa and ˜50 kDa after IMAC purification, most likely representing host cell protein-contaminations. The amount of protein in the culture media, ammonium sulfate concentrates and the final dialyzed elution fractions was determined using the BCA assay and the same fractions were incubated with chitin powder for 16 h at 30° C. followed by the quantification of reducing sugars to measure specific chitinase activity (Table 4.2). Thereby it was confirmed that all target enzymes were successfully enriched during purification according to the specific activity.
For the determination of enzymatic activity of recombinant chitinases, a reducing end assay was carried out [Svein et al., Carbohydr Polym, 2004. 56(1): p. 35-39.]. Fractions containing chitinases were incubated with 5% (w/v) chitin powder extracted from shrimp shells (˜400.000 g/mol; Carl Roth) in MAT buffer for 2 h in an overhead shaker at ambient temperature (standard conditions). Samples were centrifuged at 13000×g for 2 min and 40 μl of the supernatant was mixed with 40 μl 0.5 M NaOH and 40 μL of a reagent containing 1.5 mg/ml 3-Methyl-2-benzothiazolinonhydrazon and 0.75 mg/ml Dithiothreitol. Samples were incubated at 80° C. for 15 min and then thoroughly mixed with 80 μl of 0.5% (w/v) FeNH4(SO4)2)×12H2O, 0.5% (w/v) sulfamic acid and 0.25 M HCl. After cooling down to room temperature, 100 μl of the samples were measured at 620 nm. A calibration curve of N-acetyl-glucosamine was constructed freshly for each measuring cycle. One unit [U] was defined as the amount of enzyme required to release 1 μmol of reducing sugars per hour.

B1: Chitinase 5: chitinolytic enzyme from P. orarium, SEQ ID NO: 5, recombinant with PelB signal peptide and 6×His tag (protein, listed as Photobacterium orarium)
chain: MAMGWSQININGVQKWEEAYSLNVDAANEIITIGAADTAGALYASQSLLQLVDGNKVPEVQITDAPRFAYRGFSVDAVRNFRTKDAIIQLLDQMAAFKLNKLHLRLADDEGWRIEIAGLPELTDVGATRCHDPEEKACILPFLGAGPDGSPESNGYYTATDYQDILSHAAALNIEVVPEIDIPGHAHAAIKAMEARYDHYAAQGNMAEANKYLLTDFNDTTQYLSVQMFTDNAINVCMESSYNFVDAVVSGLVSLHQGVQPLKTFHFGGDEIAGAWINSPACQDFIANNTDGVHSVSDLSRYFVERISVITANYGLDMAGWEDGLMHDGQVYPRSQMANNQLWGNAWQNIWEWGVADRAYNLANNDYKVVYNHATHLYFDHPYEPDPNERGYYWAPRFTDTRKTFGFMPDDVFANADFTRAGAPITKAEVVASAGVKKLLKPENVLGLQGSLWAEAVRTEDQFEGMIFPRVLGLAERAWHTATWEANDNAGIALDETGRNADYNHFANLLGQKVLPKLEQAGIAFNLPVPGGVIENGVLQANSTFPGLTIEYSTDQGTSWQSYDHLNPPAVAAGVQLRTVSGQRTSRVTTVNIE
modifications: PelB signal peptide; 6xHis tag; Chitinase 5
For B1, which “growth inhibition of Gibberella zeae in the MIC test” value (Gibberella zeae) is on record?
Its value is “xx”.

And the “Relative activity, Colloidal chitin” value [1]?
The value was 164.1 ± 2.8%.

And the “growth inhibition of Septoria tritici in the MIC test” value (Septoria tritici)?
The value was “xx”.

And the Specific activity ([2]; Culture supernatant fraction)?
The Specific activity was 0.03 U/mg.

And the Specific activity ([2]; Dialysed elution fraction after IMAC)?
Its Specific activity is 6.67 U/mg.

— patent US20240287489A1, “CHITINOLYTIC ENZYME-BASED PLANT PROTECTION AGENTS” (GLOBACHEM NV, priority 2021, published 2024)
